For experiment [1], the target named is T1, Full-length human CRM1 (HsCRM1) (human, UniProt O14980 1-1071). As to the kind of experiment: MST; direct titration, right panel.
The target of experiment [2] is T1, Full-length human CRM1 (HsCRM1). As to the kind of experiment: MST; direct titration, left panel.
Experiment [3] has the same target. As to the kind of experiment: MST; direct titration, middle panel.
For experiment [4] the target is unchanged. Kind of experiment: MST; competition with FITC-PKI^NES.

Ends that are not written are not given here. * marks the point of attachment. FITC = O=C1OC2(c3ccc(O)cc3Oc3cc(O)ccc32)c2ccc(NC(=S)*)cc21

Here are results for three molecules from publication PMC4596688 (2015).

T1 sequence (O14980 whole entry): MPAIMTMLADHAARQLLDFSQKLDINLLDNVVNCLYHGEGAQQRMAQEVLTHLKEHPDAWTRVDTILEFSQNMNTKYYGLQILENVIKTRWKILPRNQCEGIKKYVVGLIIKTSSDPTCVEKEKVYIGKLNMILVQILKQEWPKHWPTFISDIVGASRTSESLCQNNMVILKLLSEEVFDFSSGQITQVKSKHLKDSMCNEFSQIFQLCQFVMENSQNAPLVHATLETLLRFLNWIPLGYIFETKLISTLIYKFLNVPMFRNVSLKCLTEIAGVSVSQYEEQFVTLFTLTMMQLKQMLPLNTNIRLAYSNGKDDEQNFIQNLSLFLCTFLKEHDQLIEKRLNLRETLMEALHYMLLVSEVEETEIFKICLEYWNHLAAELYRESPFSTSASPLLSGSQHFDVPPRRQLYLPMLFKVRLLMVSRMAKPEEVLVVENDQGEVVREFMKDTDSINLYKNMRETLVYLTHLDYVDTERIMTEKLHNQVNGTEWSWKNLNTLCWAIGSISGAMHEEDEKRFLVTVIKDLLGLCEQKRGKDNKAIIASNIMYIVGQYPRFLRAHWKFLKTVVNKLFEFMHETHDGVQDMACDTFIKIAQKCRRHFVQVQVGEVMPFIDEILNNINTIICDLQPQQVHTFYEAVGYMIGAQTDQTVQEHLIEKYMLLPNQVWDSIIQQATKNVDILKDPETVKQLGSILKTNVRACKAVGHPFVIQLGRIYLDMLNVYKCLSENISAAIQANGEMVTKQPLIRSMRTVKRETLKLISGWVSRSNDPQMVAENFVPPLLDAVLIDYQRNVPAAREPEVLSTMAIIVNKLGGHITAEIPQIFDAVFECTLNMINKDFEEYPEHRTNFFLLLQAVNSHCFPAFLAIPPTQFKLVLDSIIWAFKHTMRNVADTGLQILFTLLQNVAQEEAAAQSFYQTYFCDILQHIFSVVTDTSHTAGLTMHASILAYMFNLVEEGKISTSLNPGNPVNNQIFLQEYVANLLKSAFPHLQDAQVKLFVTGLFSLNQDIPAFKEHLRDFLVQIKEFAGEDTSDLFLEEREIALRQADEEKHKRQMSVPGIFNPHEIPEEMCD

B1: FITC-PKI^NES peptide (FITC-SGNSNELALKLAGLDINKT) (peptide)
peptide: {FITC}-SGNSNELALKLAGLDINKT
With B1, the values for the Kd in experiment [1], in experiment [2] and in experiment [3] were 44 nM, 37 nM and 30 nM, respectively.

B2: MBP-SNUPN^NES (peptide)
chain: MEELSQALASSFSVSQ
In turn, B2 registered a Kd in experiment [4] of 12000 nM.

B3: MBP-PKI^NES (peptide)
chain: SNELALKLAGLDI
The molecule B3 displayed a Kd in experiment [4] of 36 nM.
